First the molecules themselves.
B1: CPEB3 Ribozyme (parent)
chain: GGGGGCCACAGCAGAAGCGUUCACGUCGCGGCCCCUGUCAGAUUCUGGUGAAUCUGCGAAUUCUGCUGU

The variants in this data set derive from B1. Briefly: self-cleavage, relative activity (ratio to wild type); higher = more cleavage; co-transcriptional.
In the case of U20G G31A, the self-cleavage was 0.155.

Consider U20G G31C, for which the self-cleavage came to 0.134. For the variant U20G C34G, the self-cleavage amounted to 0.28. On to U20G C34U, for which the self-cleavage stood at 0.268. In the case of U20C G41C, the self-cleavage was found to be 0.139. As to U20C G41U, the self-cleavage amounted to 0.137. For the variant U20C G41A, the self-cleavage was found to be 0.247. On to U20G G25A, for which the self-cleavage was 0.129. U20G G25U: the self-cleavage is 0.185. The same measure for U20C U46A: 0.262; for U20C U46G: 0.275; for U20C U46C: 0.257. The same measure for U20C G48U: 0.242; for U20C G48A: 0.189. For the variant U20C U69A, the self-cleavage was 0.124. On to U20C U69C, for which the self-cleavage came to 0.427. Take U20C G65A: the self-cleavage stood at 0.141. On to U20G G30A, for which the self-cleavage worked out at 0.126.

As to U20C C57G, the self-cleavage was 0.261.

Turning to U20C U64C, the self-cleavage was 0.278. U20C U64A: the self-cleavage is 0.167. As for U20C U64G, the self-cleavage was 0.104. Take U20C U44A: the self-cleavage worked out at 0.185. For U20C C22G, the self-cleavage amounted to 0.214. Turning to U20C C22U, the self-cleavage stood at 0.229.

Take U20G C57U: the self-cleavage is 0.143. As to U20C U49A, the self-cleavage came to 0.137. With U20C U49C, the self-cleavage turned out to be 0.214.

Consider U20C U49G, for which the self-cleavage is 0.231. Consider U20C G31U, for which the self-cleavage was found to be 0.204. Consider U20C G31C, for which the self-cleavage came to 0.148.

As to U20C G31A, the self-cleavage is 0.261. Consider U20C U61C, for which the self-cleavage worked out at 0.182. On to U20C U61A, for which the self-cleavage came out at 0.236. The same measure for U20G: 0.207. In the case of U20C, the self-cleavage was 0.222. Consider U20C C54U, for which the self-cleavage is 0.182.

Turning to U20C C54G, the self-cleavage worked out at 0.206. Regarding U20C C63U, the self-cleavage came to 0.229. The same measure for U20C C63G: 0.162; for U20C C63A: 0.138. Turning to U20C C33G, the self-cleavage came to 0.113. For the variant U20C C33U, the self-cleavage came to 0.219. To U20C C33A belongs 0.286. Turning to U20G C32A, the self-cleavage was 0.218. For U20G C32U, the self-cleavage was 0.157. With U20C G28C, the self-cleavage amounted to 0.133. Take U20C G28A: the self-cleavage worked out at 0.117. In the case of U20C G56A, the self-cleavage was found to be 0.223. For the variant U20C A40G, the self-cleavage is 0.212. Turning to U20C U62C, the self-cleavage was determined as 0.204.

In the case of U20C A51G, the self-cleavage is 0.272.

U20C A42G: the self-cleavage is 0.161. Consider U20C U36A, for which the self-cleavage stood at 0.125. In the case of U20C U55A, the self-cleavage is 0.175.

Take U20C G37A: the self-cleavage came out at 0.102. With U20C G37U, the self-cleavage was found to be 0.114.

U20G A60C: the self-cleavage amounted to 0.191. For the variant U20G A60G, the self-cleavage was 0.0625. As to U20G A60U, the self-cleavage amounted to 0.073. On to U20G A59U, for which the self-cleavage was 0.176. Take U20G A59G: the self-cleavage was found to be 0.204.

Take U20C C34U: the self-cleavage was determined as 0.13. As to U20C C34G, the self-cleavage came out at 0.139. Take U20C C34A: the self-cleavage turned out to be 0.176. Consider U20G C27U, for which the self-cleavage is 0.0848. U20G C35G: the self-cleavage stood at 0.184.

For U20G C35U, the self-cleavage came out at 0.171. Consider U20G C35A, for which the self-cleavage is 0.218.

Regarding U20C U38C, the self-cleavage amounted to 0.212. As for U20C U38G, the self-cleavage turned out to be 0.24. U20C U38A: the self-cleavage was 0.181. For the variant U20C U21A, the self-cleavage turned out to be 0.208. Turning to U20G C54A, the self-cleavage was found to be 0.203. For the variant U20G C54U, the self-cleavage turned out to be 0.196. Regarding U20G C54G, the self-cleavage is 0.118.

Consider U20G A23G, for which the self-cleavage was found to be 0.32. Consider U20G A23C, for which the self-cleavage was 0.196. With U20G A23U, the self-cleavage worked out at 0.243. For the variant U20A U69C, the self-cleavage was found to be 0.225. Take U20A U69G: the self-cleavage stood at 0.282. Turning to U20G A52U, the self-cleavage came to 0.183. U20G A52G: the self-cleavage was determined as 0.292. To U20G A52C belongs 0.148.

Consider U20C G58U, for which the self-cleavage was determined as 0.204. As for U20C G58C, the self-cleavage came to 0.147. Take U20C G58A: the self-cleavage stood at 0.161.

As for U20G C29A, the self-cleavage amounted to 0.198. For U20G C29G, the self-cleavage came to 0.128. For the variant U20C U43C, the self-cleavage was determined as 0.212. Take U20G C24U: the self-cleavage was found to be 0.144. The same measure for U20G C24G: 0.146. With U20G G37A, the self-cleavage came out at 0.173. To U20G G37C belongs 0.151; to U20C C35G, 0.129. The same measure for U20C C35A: 0.169; for U20C C35U: 0.145; for U20G C33A: 0.135. The same measure for U20G C33G: 0.261; for U20C C32A: 0.192. In the case of U20C G47U, the self-cleavage stood at 0.239.

Turning to U20C G47A, the self-cleavage was 0.243. In the case of U20C G47C, the self-cleavage is 0.188.

As for U20G G48U, the self-cleavage came out at 0.141.

Take U20G G48A: the self-cleavage stood at 0.127. With U20G A42U, the self-cleavage stood at 0.216. The same measure for U20G A42C: 0.279. In the case of U20G A42G, the self-cleavage was found to be 0.079. Consider U20C C66U, for which the self-cleavage was 0.272.

For U20C C66A, the self-cleavage amounted to 0.204. On to U20G C63G, for which the self-cleavage stood at 0.21.

Consider U20G C63U, for which the self-cleavage was 0.246. Turning to U20G G50A, the self-cleavage stood at 0.206. As for U20C G68A, the self-cleavage was found to be 0.336. U20C A23C: the self-cleavage was determined as 0.243.

For the variant U20C A23U, the self-cleavage was found to be 0.257.

U20C G30U: the self-cleavage was determined as 0.153. As for U20C G30C, the self-cleavage is 0.178. Consider U20C U67G, for which the self-cleavage is 0.164.

For the variant U20C U67A, the self-cleavage worked out at 0.233. For the variant U20C A59U, the self-cleavage turned out to be 0.15. For U20C A59G, the self-cleavage was found to be 0.277. In the case of U20C A59C, the self-cleavage worked out at 0.124. Take U20C C39U: the self-cleavage is 0.176.

Turning to U20C C39A, the self-cleavage was 0.224. With U20C C39G, the self-cleavage came to 0.201. For the variant U20G C66U, the self-cleavage was 0.216. With U20C A52C, the self-cleavage was 0.181. U20C A52U: the self-cleavage came out at 0.109. Turning to U20G G28A, the self-cleavage stood at 0.186. Turning to U20G G28C, the self-cleavage is 0.145. Take U20C C45U: the self-cleavage was determined as 0.201. For the variant U20C C45A, the self-cleavage was 0.219. For the variant U20C C45G, the self-cleavage is 0.217.

Regarding U20G G47A, the self-cleavage turned out to be 0.247.

As for U20G G47C, the self-cleavage turned out to be 0.189.

U20G G47U: the self-cleavage stood at 0.226. Turning to U20C U53C, the self-cleavage is 0.161. With U20C C29A, the self-cleavage is 0.227. For the variant U20C C29U, the self-cleavage was 0.128. For the variant U20G C39G, the self-cleavage was determined as 0.23. As for U20G C39U, the self-cleavage is 0.0993. As for U20G C39A, the self-cleavage amounted to 0.169. Turning to U20G A40C, the self-cleavage is 0.243. For U20G A40U, the self-cleavage came out at 0.134.

For U20G A40G, the self-cleavage was found to be 0.169. Take U20G C45U: the self-cleavage was found to be 0.202.

As to U20G C45G, the self-cleavage was 0.11.

On to U20G C45A, for which the self-cleavage is 0.221. To U20C G50U belongs 0.245; to U20C A60C, 0.142.

For U20C A60G, the self-cleavage was determined as 0.166. For the variant U20C A60U, the self-cleavage turned out to be 0.208. Consider U20G C22A, for which the self-cleavage came out at 0.249. On to U20G C22G, for which the self-cleavage was 0.192. On to U20C C27G, for which the self-cleavage turned out to be 0.136.

Turning to U20C C27U, the self-cleavage was determined as 0.114. Take U20C U26A: the self-cleavage amounted to 0.205. To U20C U26C belongs 0.235; to U20C U26G, 0.114; to U20C G25A, 0.68. For U20C G25C, the self-cleavage came to 0.249. Consider U20C G25U, for which the self-cleavage came to 0.616. Regarding U20G A51G, the self-cleavage is 0.193.

With U20G G41C, the self-cleavage turned out to be 0.0984. For the variant U20G G41A, the self-cleavage was 0.127.

For U20G G41U, the self-cleavage came out at 0.194.

The values are drawn from the RNAGym collection of RNA variant scans (doi:10.7554/elife.80360).
